Reference: the nanobody polyreactivity screen of Harvey et al. (2022)

Assay: yeast display, Sf9 membrane polyspecificity reagent, FACS + sequencing; frameworks hold sequencing errors
Summary of the method: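 Synthetic nanobody libraries on Saccharomyces cerevisiae BJ5465 were galactose-induced for 36–48 hours, stained 1 hour at 4 °C with 10% biotinylated, detergent-solubilized Sf9 membrane reagent and enriched on streptavidin microbeads. FACS then separated cells into low and high (top ~1%) gates by anti-HA (expression) and streptavidin (reagent binding) fluorescence. Genes were colony-PCR amplified, MiSeq 2 × 250 sequenced and CDR-length filtered. A clone's polyreactivity label is that of its gate of origin.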
In the case of “QVQLVESGGGLVQAGGTLRLSCAASGSIFRYYAMGWYRQAPGKERELVATITSTGGSTYYADSVKGRFTISRDNAKNTVYLQMNSLKPEDTAVYYCAARNKWYVTVRGYYLSGFWGQGTQVTVSS”, the “polyreactivity (PSR sort gate)” value is reported as “high polyreactivity”.
With “QVQLVESGGGLVQAGGSLRLSCAASGSTFDRYAMGWYRQAPGKERELVAAISWSGGSTYYADSVKGRFTISRDNAKNTVYLQMNSLKPEDTAVYYCARRYARITPVYAPLNYWGQGTQVTVSS” the “polyreactivity (PSR sort gate)” value was “high polyreactivity”.
In the case of “QVQLVESCGGLVEAGGSLRLSCAASGSILYSNAMGWYRQGPGKESELVAAIRSGGSTSYADSVKGRFTISRDNANNTVYLQMNSLKPDDTAVYYSAADPSSGVTYGMYYWGQGSQVTVSS”, the “polyreactivity (PSR sort gate)” value is reported as “low polyreactivity”.
With “QVQLVESGGGLGQAGGSLRLSCAASGFTFRYYAMGWSRQAPGKERELVAAITGSGGRTYYADSVKGRFTISRDNAKNTVYLQKNSLKPEDSAVYYCARDVDPRGRYYWGQGTQVTVSS” the “polyreactivity (PSR sort gate)” value was “high polyreactivity”.
In the case of “QVQLVESGGGLVQAGGSLRLSCAASGRTFRWNGMGWYRQAPGKERELVAVINRGGSTTYADSVKGRFTISRDNAKNTVYLQMNSLKPEDTAVYYCAKDHYYAGTWRYGYWGQGTQVTVSS”, the “polyreactivity (PSR sort gate)” value is reported as “high polyreactivity”.
In the case of “QVQLVESGGGLVQAGGSLRLRCAASGRIFRGYAMGWYRQAPGKERELVAAISWSGGSSTYADSVKGRFTISLDNAKNTVYLQMNSLKPEDTAVYDCNRVSRGRGRLTVDYQAEGYDSWGQGTQVTVSS”, the “polyreactivity (PSR sort gate)” value is reported as “high polyreactivity”.
For “QVQLVESGGGLVQAGGSLRLSCAASGIIFTSYAMGWYRQAPGKERELVAVITGTGGITYYADSVKGRFTISRDNAKNTVYLQMNSLKPEDTAVYYCAAELELREYDYWGQGTQVTVSS”, the “polyreactivity (PSR sort gate)” value was “high polyreactivity”.
In the case of “QVQLVESGGGLVQAGGSLRLSGAASGSTFVIYAMGWSRQAPGKERELVAAIRLGGGSTYYADSVKGRFTISRDNAKNTVYLQMNSLKPEDTEVYYCAAEVDQWYYRGYVYWGQGTQVTVSS”, the “polyreactivity (PSR sort gate)” value is reported as “high polyreactivity”.
For “QVQLVESGGGLVQAGGSLRLSCAASGGILGVNAMGWYRQAPGKERELVAAISGRGGRTYYADSVKGRSTISRDNAKNTVYLQLNSLKPEDTAVYYCAVEFYSVARFPLWSYYWGQGTQVTVSS”, the “polyreactivity (PSR sort gate)” value was “high polyreactivity”.
With “QVQLVESGGGLVQAGGSLRLSCAASGRIFGLNAMGWYRQAPGKERELVAAISERDGSTYYADSVKGRFTISRDNAKNTVYLQMNSLKPEDTAVYYCAAVTPVHYVRGVHYDYWGQGTQVTVSS” the “polyreactivity (PSR sort gate)” value was “low polyreactivity”.
In the case of “QVQLVESGGGLVQAGASLRLSCAASGIILHYYAMGGYRQAPGKERELVAAISARGGRTYYADSVKGRFTISRDNAKNTVYLQMNSLKPEDTAVYYCARYLRRSSPSPGYGYWGQGTQVTVSS”, the “polyreactivity (PSR sort gate)” value is reported as “high polyreactivity”.
With “QDQLVESGGGLVQAGGSLRLSCAASGSIFKINAMGWYRQAPGKERELVATITWSTGTTYYADSVKGRFTISRDNAKNTVYLQMYSLKPEDTAVYYCATDGDSTKLDYWGQGTQVTVSS” the “polyreactivity (PSR sort gate)” value was “low polyreactivity”.
With “QVQLVESGGGIVQAGGSLRLSCAASGSIFSRKVMGWYRQAPGKDRELVAAISWSGSSTSYADSVKGRFTISRDTAKNTVYLQMNSLKPEDTAVYYCNRYFGQGYWGQGTQVTVSS” the “polyreactivity (PSR sort gate)” value was “high polyreactivity”.
For “QVQLVESGGGLVQAGGSLRLSCAASGSIFDWYAMGWYRQAPGKEGELVAAISSGDSTYYADSVKGRFTISRDNAKITVYLQMNSLKPEDTAVYDCAAEFHDDHPSFDYWGQGTQVTVSS”, the “polyreactivity (PSR sort gate)” value was “low polyreactivity”.
In the case of “QVQLVESGGGLVQAGGSLRLSCAASGRTFLGYAMGWYRQAPGKERELVAAISSSGGRTYYADSVKGRFTISRDNAKNTVYLQMNSLKPEDTAVYYCNAPRIVLCGYEYWGQGTQVTVSS”, the “polyreactivity (PSR sort gate)” value is reported as “high polyreactivity”.
For “QVQLVESGGGLVQAGGSLRLSCAASGGIFPKNAMGWYRQAPGKERELVAAINWSGGTTNYADSVKGRFTISRDNAKNTVYLQMNSLKPEDTAVYYCAKQGLWIFVVVEMDYWGQGTQVNVSS”, the “polyreactivity (PSR sort gate)” value was “low polyreactivity”.
In the case of “QVQLVDSGGGLVQAGGSLRLSCAASGRTFGIYAMGWYRQAPGKERELVAAIRWRDGSTYYADSVKGRFTISRDNAKNTVYLQMYSLKPEDNAVYYCAATSLVYVRGSYWKYGYWGQGTQVTVSS”, the “polyreactivity (PSR sort gate)” value is reported as “high polyreactivity”.
For “KVQLLESGGGLFQAGGSVRLSCAASGSIIFTYAMGWSRQSPGTEREWVAVITWCGGSTYYADSVKGRFTISRDYAKNTVYLQMNSLKPEDTAVYYCAKDSYYYRRDVTVDYWVQGTQVTVSS”, the “polyreactivity (PSR sort gate)” value was “low polyreactivity”.
For “QVQLVESGGGLVQAGGSLRLSCAASGSIFSVNAMGWYRQAPGKVRELVAAISWRGGSTYYADSVKGRFTISRYNAKTTVYLQMNSLKPEDTAGYYCNAVISVKRSTRYGYWGQGTQVTVSS”, the “polyreactivity (PSR sort gate)” value was “low polyreactivity”.
With “QVQLLESGGGLVQAGGSLRLSCAASGFSFEYYAMGWSRQAPGKDRELVAAIRSVSGTNYADSVKGRFTISRDNAKNTVYLQMNSQKPEDTAVYYCAKLRYPYLFLDDSEYWGQRTQVTVSS” the “polyreactivity (PSR sort gate)” value was “low polyreactivity”.
In the case of “QFQLVESGGGLVQAGGSLRLSCASSGIIFKRYAMGWYRQAPGNERELVAAISTSGSTYYADSVKGRFTISRDNAKNTVYLQMNSLKPEDTAVYYCAAGRWWRYFTWHGYWGQGTQVTVSS”, the “polyreactivity (PSR sort gate)” value is reported as “high polyreactivity”.
In the case of “QVQPQESGGGPVQACGSLRLSCAASGNILDADILGWYRLVPGIERELVASITDGGSTNYAESVKGRFTIRRDNAKNTVYLQMNSLIPEDTAVYYCAVWSLGRWRHYYWGQGTQVTVSS”, the “polyreactivity (PSR sort gate)” value is reported as “low polyreactivity”.
In the case of “QVKLGESGGGLVQAGGSLLLSCAASGRTFWYYTMGWYRQAPGKERELVASITAGSGTTYYADSVKGRFTISRHNAKNTVYFQMYSLKPEDSAGYYCSSKNTPSFFYYDRYDYWGHGTQVTVSS”, the “polyreactivity (PSR sort gate)” value is reported as “low polyreactivity”.
With “QVQLVESGGGLVQAGGSLRLSCAASGGTFGTNAMGWYRQAPGKEREFVAAISRSGGSTNYADSVKGRFTISRDNAKNTVYLEMNILKPEDTAVYFCATRVIVVPRGGGYYSWGQGTQVTVSS” the “polyreactivity (PSR sort gate)” value was “high polyreactivity”.
With “QVQLVESGGGLVQAGVSLRLSCAASGSIFRIYGMGWYRQAPGKEREFVAAITHSGGSTYYADSVKGRFTISRDNAKNTVYLQMNSLKPEDTAVYYCAAEDYNYWSYDYWGQGTQVTVSS” the “polyreactivity (PSR sort gate)” value was “low polyreactivity”.
In the case of “QVQLVESGGGLVQAGGSLRLSCAASGSTFGWYAMGLYRQAPVKERELVATISSGGSTYYADSVKGRFTISRDNAKNNVYLQMNSLKPEDTAVYYCAADYWTYEYPGYDYWGQGTQVTVSS”, the “polyreactivity (PSR sort gate)” value is reported as “low polyreactivity”.
For “QVQLVESGGGLVQAGGSLRLSCAASGSTFNLYAMGWYRQAHGKERELVADITWSGGSTYYADSVKWRFTISRDNAKKTFYLQMNSLKPEDTAVYYCAAYGLSWGGYDYWGQATQVTVSS”, the “polyreactivity (PSR sort gate)” value was “low polyreactivity”.
In the case of “QVQLVESGGGLVQAGGSLRLSCAASGRIFQANAMGWYRQAPGKERELVASISSGGSTNYADSVKGRFTISRDNAKNTVYLQMNSLKPEDTAVYYCAARHPSSAYWVGYYWYDYWGQGTQVTVSS”, the “polyreactivity (PSR sort gate)” value is reported as “low polyreactivity”.
With “QVQLVESGGGLVQAGGSLRLSCAASGFTFWLYAMGWYRQAPGKERELVAAIDWDCGTYYADSVKGRFTISRDNAKNTVYLQMNSLKPEDTAVYYCAARYRYYYTRYDYWGQGTQVTVSS” the “polyreactivity (PSR sort gate)” value was “high polyreactivity”.
In the case of “QVQLVESGGGLVQAGGSLRLSCAASGFTFDSNAMGWYRQAPGKERELGAAISKRGGSTYYADSVKGRFTISRDNAKNTVYLQMNSLKPEDTAVYYCAADNYNSGGTRHMYYWGQGTQVTVSS”, the “polyreactivity (PSR sort gate)” value is reported as “high polyreactivity”.
For “QVQLVESGGGLVQAGGSLRLSCAASGITFVGNAMGWYRQAPGKERELVAAITSSGSTHYADSVKGRFTISRDNAKNTVYLQMNSLKPEDTAVYYCAAVTRFSGGLYYYWGQGTQVTVSS”, the “polyreactivity (PSR sort gate)” value was “high polyreactivity”.
With “QVQLVESGGGLVQAGGSLRLSCAASGRILASYAMGWYRQAPGKERELVAAIRYRGSTSYADSVKGRFTISRDNAKNTVYLQMNSLKPEDTAVYYCAAKWHVRGRGARYRYDYDYWGQGTQVTVSS” the “polyreactivity (PSR sort gate)” value was “low polyreactivity”.
For “QVQLVESGGGLVQAGGSLRLSCADSGSTFYRYAMGWYRPAPGKERELVAAISKRGGSTYYADSVKGRFTISRDNAKNTVYLQMNSLKPEDTAVYYCAADPFHYGGGDDYWGQGTQVTVSS”, the “polyreactivity (PSR sort gate)” value was “high polyreactivity”.
For “QVQLVESGGGLVQAGGSLRLSCAASGRIFADNAMGWYRQAPGKERELVATISRNGGRTSYADSVKGRFTISRDNAKNTVYLQMNSLNPEVTAVYYCAVRAPGSSEGYYWGQGSQVTVSS”, the “polyreactivity (PSR sort gate)” value was “low polyreactivity”.
With “QVQLVESGGGLVQAGGSLRLSCAASGRIFRPYAMGWYRQAPGKERELVASISWRGSSTYYADSVKGRFTISRDNAKNTVYLQMNSLKPEDTAVYYCAARRYPTSGYAYWGQGTQVTVSS” the “polyreactivity (PSR sort gate)” value was “high polyreactivity”.
With “QVQLVESGGGLVQAGGSLRLSCAASGIIFRNNAMGWYRQAPGKERELVAAISRRGGSTSYADSVKGRFTISRDNAKNTVYLQMNSLKPEDTAVYYCNKAGPYYGYPHYLFYYWGQGTQVTVSS” the “polyreactivity (PSR sort gate)” value was “high polyreactivity”.
For “QVQLVESGGGLVQAGGSLRLSCAASGFIFRRYSMGRYRQAPAKERELVAASTSGGGRTYYADSVKGRFTISRDNAKNTVYLQMNSLKPEDTAVYYCARVQRGDYDYWGQGTQVTVSS”, the “polyreactivity (PSR sort gate)” value was “high polyreactivity”.
In the case of “QVQLVESGGGLVQAGGSLRLSCAASGSTFGLYAMGWYRQAPGKERELVAAISSGGRTNYADSVKGRFTISRDNAKNTVYLQMNSLKPEDTAVYYCASAYIRGSRRYDYWGQGTQVTVSS”, the “polyreactivity (PSR sort gate)” value is reported as “high polyreactivity”.
In the case of “QVQLVESGGGLVQAGGTLRLSCDASGLIFEYYAMGWYRQAPGKERELVAVINWSGASTYYADSVKGRFTISRDNAKNTVFLQMNSLKPEDTAVYYCAAGVLITGLRFDYWGQGSQVTVSS”, the “polyreactivity (PSR sort gate)” value is reported as “low polyreactivity”.
In the case of “QVQLVESGGGLVQAGGSLRISCAATGIIFIGYAMGWYRQAPGKERELVAAITRSGVSTYYADSVKGRFTISRDNAKNTVYLQMNSLKPEDTAVYYCAARYFGEKYSHGFDYWGQGTQVTVSS”, the “polyreactivity (PSR sort gate)” value is reported as “low polyreactivity”.
In the case of “QVQLVESGGGLVQAGGSLRLSCAASGSTFTGNVMGWYRQAPGKERELVAAIRDSGGSTYYADSVKGRFTISRDNAKNTVYLQMNSLKPEDTAVYYCDAEYLYGSYYGYYYWGQGTQVTVSS”, the “polyreactivity (PSR sort gate)” value is reported as “low polyreactivity”.
In the case of “QVQLVESGGGLVQAGGSLRLSCAASGIIFAYYDMGLYRKAPGKERELVAAISSTGSNTYYADSVKGRFTISRDNAKNTVYLQMNSLKPEDTAVYYCAAGYAYYIGHGDYWGQGTQVTVSS”, the “polyreactivity (PSR sort gate)” value is reported as “high polyreactivity”.
In the case of “QVQLVESGGGLVQAGGSLRLSCAASGITFDVYAMGWYRQAPGKERELVAAISGSGGSTYYADSVKGRFTISRDNAKNTVYLQMNSLKPEDTAVYYCAASGPDGQYLWYDYWGQGTQVTVSS”, the “polyreactivity (PSR sort gate)” value is reported as “high polyreactivity”.
